# Experiment: label from the status in PepcDB records
# 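Further: failed if final PepcDB status was selected cloned or expressed and not failed if soluble or beyond.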
row,Sequence,protein production
1,MENKYLVSIIVPVHNTADYLHKCIESLRSQTLQQIEIILVDNLSVDGSSEICDEYAKIDKRIKVLHLSIAGLSIARNAGMRIASAPYIGFVDSDDYVEPAMFEKMLDAMVQSDAEIAYCNFLLEYEFKPNESPYRNSGDIVIRDPKNVLQDMMMEKVSCSACTKLYKSGFLTSLQFPEGKNYEDRLVMYEWVALCKKVVWVDSPFYHYVERQTSICHTMSPMNLYHYFLAEYARMRFMEKYSLFEEEDLFKIRTRLIGTCLTIFKEILLKVNLREFKEPVKDMRQKMKEIAALPEDTYELKYRRRVRKIAYHWHLYYLTHFLFKKGGDSLEHHHHHH,failed
2,MENMENDENIVVGPKPFYPIEEGSAGTQLRKYMERYAKLGAIAFTNAVTGVDYSYAEYLEKSCCLGKALQNYGLVVDGRIALCSENCEEFFIPVIAGLFIGVGVAPTNEIYTLRELVHSLGISKPTIVFSSKKGLDKVITVQKTVTTIKTIVILDSKVDYRGYQCLDTFIKRNTPPGFQASSFKTVEVDRKEQVALIMNSSGSTGLPKGVQLTHENTVTRFSHARDPIYGNQVSPGTAVLTVVPFHHGFGMFTTLGYLICGFRVVMLTKFDEETFLKTLQDYKCTSVILVPTLFAILNKSELLNKYDLSNLVEIASGGAPLSKEVGEAVARRFNLPGVRQGYGLTETTSAIIITPEGDDKPGASGKVVPLFKAKVIDLDTKKSLGPNRRGEVCVKGPMLMKGYVNNPEATKELIDEEGWLHTGDIGYYDEEKHFFIVDRLKSLIKYKGYQVPPAELESVLLQHPSIFDAGVAGVPDPVAGELPGAVVVLESGKNMTEKEVMDYVASQVSNAKRLRGGVRFVDEVPKGLTGKIDGRAIREILKKPVAKM,not failed
3,MENNGEMNAQPELSGIIDITKTYMYEKLWNICAGPLCVLPKPGEKVYYFPQGHIELIENSTRDELDHIRPIFDLPSKLRCRVVAIDRKVDKNTDEVYAQISLMPDTTDMSQPISTQNLVAKDLYGQEWSFKHVFRGTPQRHMFTSGGGWSVFATTKRLIVGDIFVLLRGENGELRFGIRRAKHQQGHIPSSVISANCMQHGVIASVVNAFKTKCMFNVVYKPSYDKFVDAMNNNYIVGSRFRMQFEGKDFSEKRYDGTIIGVNDMSPHWKDSEWRSLKVQWDELSPFLRPNQVSPWDIEHLIPSSDISQSSATLSNLWTCQEIGQRSMNSPISVPEFSYPNAIEDSKFLSGLLLNHSLLAIPNENYNSDQMIQPRKEDITTEATTSCLLFGVDLTKVHMQGVAISRAVDLTAMHGYNQLIQKLEELFDLKDELRTRNQWEIVFTNNEGAEMLVGDDPWPEFCNMAKRIFICSKEEIKKMKLKNKFFQPESKALTSSDVPPNVTDN,failed
4,MENNPNNNQASLERNELHNTIWKVANELRGSVDGWDFKQYVLGILFYRYISENMTHYINKEERKRDPSFDYAKLSDEKAERGRKHLIEQKGFFIPPSALFCNALKNACHNEDLNVTLQNIFNEIEKSSLGTPSEENVKGLFADLDVNSNKLGSSHQNRVEKLTKILEAIGGMQLGDYLKSGIDVFGDAYEYLMAMYASNAGKSGGEFFTPQEVSELLAKITLHGQESVNKVYDPCCGSGSLLLQFSKVLGDKNVSKGYFGQEINLTTYNLCRINMFLHDINYSKFHIAHGDTLLDPKHEDDEPFDAIVSNPPYSTKWVGDSNPILINDERFSPAGVLAPKNAADLAFTMHMLSYLSNSGTAAIVEFPGVLYRGNAEAKIREYLVKENVIDCVIALPDNLFFGTSIATCILVLKKNKQDDTTLFIDASKEFVKEGKKNKLKERNREKILQTYIERKEIKHFCALANIEKIKENDYNLSVNRYVEQEDTKEAIDIKALNSEIAQIVEKQSALRNRLESIIKELEGGQNA,failed
5,MEPGLDGGYLLLGVDWAINDKGDTVYRPVGLPDPDKVQRDLASQCASMLNVALRPEMQLEQVGGKTLLVVYVPEADVTHKPIYKKATGLPGGAYRRIGSSDQRCVLEHHHHHH,failed
6,MEPKVTIHRYYSRQAKYEGAVEADLELCIKHCGGDVVRIELVNRLHGIQLQRKLRRLLLLMFLSIAYFVGTCGFDNRTISFLQPRILYPLITCASVAILLIRSTLNLVQAERLFYSWDMALQMETVRSFGRESVLCVQRGHIEDIVLNEVIEDLDVKYMLILRTKGSQFKKRPIIPLFNSQSPSIECLQHTYHVLHKYWLNSTKDRSEESYSKDKQSLVNS,failed
7,MEQEILALFEKILSRKVGFNDELIESDILDSILAVDLVLEVQDVYGCVIPPTEVATVLKTPADLARYIEENRG,failed
8,MEQFSFIACMPDIPGALHRAAEIITRYEGNINRIQYDRRIDLHTVFFEVTALPQAYEKIREELEKIGYLQTSLQPVAFVKFHVYLPNCPGALFDLLNYITSSKSSITFLDFDDRGQHPERLVVGLHIEDPNMIDALLNQLKSRYRLDILEYDTTGEKLDDTVFYLRLAQKLRSFIGSAEDDFLMRFLQDINHITQELSNLQKDPIEVFENILKVGDYLNRTSGDNFYADVQRVRIKDDIELFCFQPPCGGNIYLFDTSSERVMIDTGYGIYFQDIVNMLQYYGLGDLSRLKRIYITHADADHCGAAGCFPAPSYLNRETFLITRETSRAYGSSNQDCILEEVYTKIINLFSRFTPPSNTVLFPEVSLSDKIIEKRGVFPIIARFRIGDLKFEVLEGMGGHMHGEVFYFCPEEGLLFPEDAVINFKSLSPDRTAYNVLADYLMTSVNVDSKLAREERQSLLSLISEIDEQLARKNKKCLICCGHGSMSLLDNGKLIEYKGSERYVAGQKCISQENL,failed
9,MEQGMSKRILVPVAHGSEEMETVIIVDTLVRAGFQVTMAAVGDKLQVQGSRGVWLTAEQTLEACSAEAFDALALPGGVGGAQAFADSTALLALIDAFSQQGKLVAAICATPALVFAKQQKFVGARMTCHPNFFDHIPSERLSRQRVCYYATQHLLTSQGPGTALEFALAMIALLAGVELAQHVAAPMVLHPQQLTELSGFIDAQS,not failed
10,MEQLAKLSMTDRLTGLLNRGTWENLVDAEYERFRRYGQATSLVMFDIDHFKPVNDTYGHLAGDEVIRHTADVTRNNIRQSDSAGRYGGEEFGIILPETDAESARVICERIREAIEKSTVSTSAGDIQYTVSMGIAQLTETPENYMQWMQKADEALYKAKESGRNKVVVSLEHHHHHH,not failed
11,MEQMIFIRKDDKVEVFSEEEELKGSYYRAILEDNPTKSGHNKLKVRYLTQLNEHRLAPLTEFVDQRFIRPVPSEDVNDGVVFVEGLMVDAYLKDGWWTGVVVKTMEDEKFLVYFDCPPDIIQFEKKKLRVHLDWTGFKWIRPDNKELVKSVFSCGTMVELRFDCAWIPVIVIKELEKDKRFLVKYWNKSYSCRESKNLIVDSLRLRPMQPPLSVGKYELLDHVEAFSGFEWRQGVVRGIVFEGRYMVSFGATKEASQFNHSDIRPPMEWEDGVWHKRTKPKRQKETSLDGNRNVQTKEPPGNEMADDVKKESGLPITLGVTATKNKTQGKVSPVPMKNGFGNESTREKMPEEPKIKYYTRKRKRGGLKLNSYINKTVLSSDRTPNVVKNSASNAEENHAKHTIMVLPFAKKSPVWKTYESLEVFKSVSHSLHFSPLFETKQDFREGYAIGMMVTYFGLLEKFKDLEADVPVSQLNSLKDSFSELEKHGFNVTTPLSRIDKLLALKDRQLYIMEELKGFDKEMTNEFSKAKQEFDDMEQKILEVKHKIIELQRQEAALKEQKEAEKEQKDAAWKKICQMESCAKDLNVELEDVEFEFETILSAPW,failed
12,MEQNSGTSSASGRALFPLYAITFIGTLGFGIILTFLVFLVTDYGGNALVYGILASTYPAFQLIGAPVLGRWSDLYGRKKILLLSQIGTMLAWIIFFAALFFPVIPLIEVRSDLLGTFTITLPLLILFLARALDGATGGNVSVANAYLADLTSEEERNKNYGRMSVASNLGYVFGPAIAGVLGTTAYGEILPVSAALVISIIGTLIVLFLLPDSRPCAIEEYPESTGIRKILGQEQKECYQVEAGSKITFREVFKLEYIPFMLVVYFLIFLGFNIYYTAFPIFAVVALEWSPAELGIYFSVISALMAFVQGPVLAKLARRYRESIMVVGGGFILGLQFILIVSGDYLLLYLAAVFFAFGNGIMWPSILSILSKFAGKKYQGSVQGFAMSASSLASIIGLLAGGFLYTQFGVIAFLIAAAIIYLVVFLSFRLLRIEKEKLIETEAAKTPV,failed
13,MEQPQEEAPEVREEEEKEEVAEAEGAPELNGGPQHALPSSSYTDLSRSSSPPSLLDQLQMGCDGASCGSLNMECRVCGDKASGFHYGVHACEGCKGFFRRTIRMKLEYEKCERSCKIQKKNRNKCQYCRFQKCLALGMSHNAIRFGRMPEAEKRKLVAGLTANEGSQYNPQVADLKAFSKHIYNAYLKNFNMTKKKARSILTGKASHTAPFVIHDIETLWQAEKGLVWKQLVNGLPPYKEISVHVFYRCQCTTVETVRELTEFAKSIPSFSSLFLNDQVTLLKYGVHEAIFAMLASIVNKDGLLVANGSGFVTREFLRSLRKPFSDIIEPKFEFAVKFNALELDDSDLALFIAAIILCGGE,not failed
14,MEQRRLASTEWVDIVNEENEVIAQASREQMRAQCLRHRATYIVVHDGMGKILVQRRTETKDFLPGMLDATAGGVVQADEQLLESARREAEEELGIAGVPFAEHGQFYFEDKNCRVWGALFSCVSHGPFALQEDEVSEVCWLTPEEITARCDEFTPDSLKALALWMKRNAKNEAVETETAE,not failed
15,MEQRVLGGRYLLKDKVGTGGMATVYRAQDQVLDRTVAVKIMLPQYAGDATFAARFKQEAQAAAGLSSPYIVGVYDWGKDGDTYYIVMEYLRGTDLKSGIKSHGALDPKKVAQIGSQISSALSVAHKHEIIHRDIKPQNIMVLPDGNIKVMDFGIARAKNSHLTQDNNVLGTAHYVSPEQTRGQDLGPTSDIYSLGVVMYECATGRVPFDGDDAISVALKQVNELPIPPSQINSGVDADLERIILKCMEKDPTNRFQTADELRQVLNSYLSGRAVNVSEPTRIIGAPGELGATKTRELSDQTRAMVRPVSGVSGQNTARSSVSGSTGSYEVEEPKSNKNKIIAAVVAAVAVIGIVVAFATGLFGGEQVTVPDVLGKDQQTAVELIKEAGLEVGTIDQSYNDDVDEGKVAEQTPNGNTKKTKGTKVNLVISKGPKPSEKVEVPKLVGLTKDQAEAALASVGLKGNASEEANEADEGQVFEQGTEAGKEVAKGTTISYKVSSGPDTTSVPDLTDMTEAQARNALDMAGFGVDVSYQENDSVTEGTVISWNPSGKQKPGATITVVIAKKSGKATVPGNLYGKSISAAVTALNNAGFYNIGFCDQNGNPVSGNEDATVTGVSPTGKQSTDSTITLTVALSGSGSGSGTSTGDDSGTTN,failed
16,MEQTEHIPPPGLVAQLRERSLLQTGDRFETLYGGRTNRVWRLHGPADDLVVKLYRRDFDNPLFGNDAQLEALCLDRLEGTGLAPQLRASGALGQEAWVVYDHAPGAPWRTDPAIAARMLANLHRRALDIPAPAGCNGSAAIRTHAEAILSRCDQPDRELLLKARPHTATIAPGPACLIHGDPVAGNLLVSGDQAILIDWQCPAIGDPAEDLAMFLSPAMQQVYRGAPLTAAEEQQFLSAYDNAGTVARYLSLKPWFHWRMAAYCRWRARNGAPDYAPAFELEHAALAAC,failed
17,MEQVIAQVIKRQQTEERPPDVLSQQTTKYEKRNSASLRKRKNSSKLYLKTDQNWMALREKLASNSIHDKGKYRQKRESNVTCFKSGVESGIQNSSVRSRETQVTFCDGTVPSQGLELANSKSTAEISSRNEIPRLTKVVALDCEFVGVGKLGKEHSLARVSIVNFKGEVLYDKYVLNDKEPVVDYRTSVSGIRPEHLRSSDAVSFEQAQRDVYSIIRNRILVGHAIHHDMHALLLSHPRKLIRDTSKWRGLRSHHLSRKTPSLRKLAQEILGIRIQDGEHDSVEDARATLMIYKRFAKEWEMELQTKKVKLARKKHR,failed

# From a protein production outcome set (Wang et al. 2014)
